Here are results for 10 molecules from patent US10246721B2, “Sugar transporters” (CARNEGIE INSTITUTION OF WASHINGTON, priority 2009, dated 2019).

To fix the notation:
B1: GLUE8: Arabidopsis sugar transporter protein expressed in the tapetum, paralog of SWEET1 (protein, UniProt Q8LFH5 1-239, looked up)
Bidirectional sugar …: MVDAKQVRFIIGVIGNVISFGLFAAPAKTFWRIFKKKSVEEFSYVPYVATVMNCMLWVFYGLPVVHKDSILVSTINGVGLVIELFYVGVYLMYCGHKKNHRRNILGFLALEVILVVAIILITLFALKGDFVKQTFVGVICDVFNIAMYGAPSLAIIKVVKTKSVEYMPFLLSLVCFVNAGIWTTYSLIFKIDYYVLASNGIGTFLALSQLIVYFMYYKSTPKEKTVKPSEVEISATERV
B2: GLUE13: Arabidopsis GLUE/SWEET sugar transporter protein (protein, UniProt Q9FGQ2 1-294, looked up)
Bidirectional sugar …: MALTNNLWAFVFGILGNIISFVVFLAPVPTFVRICKKKSTEGFQSLPYVSALFSAMLWIYYAMQKDGTAFLLITINAFGCVIETIYIVLFVSYANKKTRISTLKVLGLLNFLGFAAIVLVCELLTKGSTREKVLGGICVGFSVSVFAAPLSIMRVVVRTRSVEFMPFSLSLFLTISAVTWLFYGLAIKDFYVALPNVLGAFLGAVQMILYIIFKYYKTPVAQKTDKSKDVSDHSIDIAKLTTVIPGAVLDSAVHQPPALHNVPETKIQLTEVKSQNMTDPKDQINKDVQKQSQV
B3: GLUE4: Arabidopsis GLUE/SWEET sugar transporter protein (protein, UniProt Q944M5 1-251, looked up)
Bidirectional sugar …: MVNATVARNIAGICGNVISLFLFLSPIPTFITIYKKKKVEEYKADPYLATVLNCALWVFYGLPMVQPDSLLVITINGTGLAIELVYLAIFFFFSPTSRKVKVGLWLIGEMVFVGIVATCTLLLFHTHNQRSSFVGIFCVIFVSLMYIAPLTIMSKVIKTKSVKYMPFSLSLANFLNGVVWVIYALIKFDLFILIGNGLGTVSGAVQLILYACYYKTTPKDDEDEEDEENLSKVNSQLQLSGNSGQAKRVSA
B4: GLUE7: Arabidopsis GLUE/SWEET sugar transporter protein (protein, UniProt Q8LBF7 1-258, looked up)
Bidirectional sugar …: MVFAHLNLLRKIVGIIGNFIALCLFLSPTPTFVRIVKKKSVEEYSPIPYLATLINCLVWVLYGLPTVHPDSTLVITINGTGILIEIVFLTIFFVYCGRQKQRLIISAVIAAETAFIAILAVLVLTLQHTTEKRTMSVGIVCCVFNVMMYASPLSVMKMVIKTKSVEFMPFWLSVAGFLNAGVWTIYALMPFDPFMAIPNGIGCLFGLAQLILYGAYYKSTKRIMAERENQPGYVGLSSAIARTGSEKTANTNQEPNNV
B5: GLUE5: Arabidopsis GLUE/SWEET sugar transporter protein (protein, UniProt Q9FM10 1-240, looked up)
Bidirectional sugar …: MTDPHTARTIVGIVGNVISFGLFCAPIPTMVKIWKMKSVSEFKPDPYVATVLNCMMWTFYGLPFVQPDSLLVITINGTGLFMELVYVTIFFVFATSPVRRKITIAMVIEVIFMAVVIFCTMYFLHTTKQRSMLIGILCIVFNVIMYAAPLTVMKLVIKTKSVKYMPFFLSLANFMNGVVWVIYACLKFDPYILIPNGLGSLSGIIQLIIYITYYKTTNWNDDDEDKEKRYSNAGIELGQA
B6: GLUE14: Arabidopsis GLUE/SWEET sugar transporter protein (protein, UniProt Q9SW25 1-281, looked up)
Bidirectional sugar …: MVLTHNVLAVTFGVLGNIISFIVFLAPVPTFVRICKKKSIEGFESLPYVSALFSAMLWIYYALQKDGAGFLLITINAVGCFIETIYIILFITYANKKARISTLKVLGLLNFLGFAAIILVCELLTKGSNREKVLGGICVGFSVCVFAAPLSIMRVVIRTKSVEFMPFSLSLFLTISAITWLFYGLAIKDFYVALPNILGAFLGAVQMILYVIFKYYKTPLVVDETEKPKTVSDHSINMVKLSSTPASGDLTVQPQTNPDVSHPIKTHGGDLEDQMDKKMPN
B7: GLUE16: Arabidopsis GLUE/SWEET sugar transporter protein (protein, UniProt Q9LUR4 1-230, looked up)
Bidirectional sugar …: MADLSFYVGVIGNVISVLVFLSPVETFWRIVQRRSTEEYECFPYICTLMSSSLWTYYGIVTPGEYLVSTVNGFGALAESIYVLIFLFFVPKSRFLKTVVVVLALNVCFPVIAIAGTRTLFGDANSRSSSMGFICATLNIIMYGSPLSAIKTVVTTRSVQFMPFWLSFFLFLNGAIWGVYALLLHDMFLLVPNGMGFFLGIMQLLIYAYYRNAEPIVEDEEGLIPNQPLLA
B8: GLUE3: Arabidopsis GLUE/SWEET sugar transporter protein (protein, UniProt Q6NQN5 1-263, looked up)
Bidirectional sugar …: MGDKLRLSIGILGNGASLLLYTAPIVTFSRVFKKKSTEEFSCFPYVMTLFNCLIYTWYGLPIVSHLWENLPLVTINGVGILLESIFIFIYFYYASPKEKIKVGVTFVPVIVGFGLTTAISALVFDDHRHRKSFVGSVGLVASISMYGSPLVVMKKVIETRSVEYMPFYLSFFSFLASSLWLAYGLLSHDLFLASPNMVATPLGILQLILYFKYKNKKDLAPTTMVITKRNDHDDKNKATLEFVVDVDRNSDTNEKNSNNASSI
B9: GLUE17: Arabidopsis GLUE/SWEET sugar transporter protein (protein, UniProt Q84WN3 1-241, looked up)
Bidirectional sugar …: MAEASFYIGVIGNVISVLVFLSPVETFWKIVKRRSTEEYKSLPYICTLLGSSLWTYYGIVTPGEYLVSTVNGFGALVETIYVSLFLFYAPRHLKLKTVDVDAMLNVFFPIAAIVATRSAFEDEKMRSQSIGFISAGLNIIMYGSPLSAMKTVVTTKSVKYMPFWLSFFLFLNGAIWAVYALLQHDVFLLVPNGVGFVFGTMQLILYGIYRNAKPVGLSNGLSEIAQDEEEGLTSRVEPLLS

The test system of one assay is HEK293T cells. As to the kind of experiment: Glucose transport by GLUE/SWEET coexpressed with FRET glucose sensor (cytosolic or ER) in HEK293T cells. Format: cell-based, human. The settings on record: ER-targeted sensor FLIPglu600μΔ13V ER. As for the experimental part:
Individual cells were analyzed by quantitative ratio imaging of CFP and Venus emission (acquisition intervals 5 sec; Fc/D corresponds to the normalized emission intensity ratio). HEK293T/FLIPglu600μΔ13V cells were perfused with medium, followed by square pulses of increasing glucose concentrations. […] Cells coexpressing the sensor and SWEET1 accumulated glucose as evidenced by the negative FRET ratio change with an amplitude that correlates with the increasing external glucose supply (blue line). Data points are mean±SD (n>10).
The sensor FLIPglu600μΔ13V^ER was targeted to the lumen of the ER (analysis performed as under FIG. 9A, acquisition intervals 10 sec). […] Cells coexpressing the sensor and SWEET1 accumulated glucose in the ER as evidenced by the negative ratio change induced by perfusion with glucose. Data points are mean±SD (n>10).
By utilizing the above described HEK293T cell system, a novel class of Arabidopsis sugar transporters was identified that are involved in nectar production in plants and with all hallmarks of the glucose transport activity described in root tips. A screening assay was then initiated in which candidate transporter genes from Arabidopsis were coexpressed with the FRET glucose sensor in the HEK293T cell expression system.
FRET analysis. Cell culture, transfection, image acquisition and FRET analysis were performed as described previously.
To identify novel glucose transporters from the reference plant Arabidopsis, genes encoding uncharacterized polytopic membrane proteins from the plant membrane protein database Aramemnon, available on the internet at “aramemnon.botanik.uni-koeln.de”,—were screened using a mammalian expression system. Candidate genes were coexpressed with a high-sensitivity FRET glucose sensor (i.e. FLIPglu600μΔ13V) in human embryonic kidney HEK293T cells, which are characterized by low endogenous glucose uptake activity. […] To determine whether SWEET1 can also mediate efflux from the cytosol, we expressed the FRET glucose sensor FLIPglu600μΔ13V^ER in the lumen of the endoplasmic reticulum (ER; FIG. 9B). Topologically, uptake across the plasma membrane (PM) is initiated from the extracellular side of the carrier, while ‘export’ to the ER is initiated from the cytoplasmic side of the transporter (FIG. 9C). […] SWEET1 may thus function as a glucose uniporter, for which the direction of transport depends only on the glucose gradient across the membrane. […] Furthermore, the mRNAs levels of known human glucose transporters in the GLUT and SGLT families were not induced in HEK293T cells expressing SWEET1 (FIG. 12B). […] In support of a role in cellular uptake and efflux, a constitutively expressed SWEET1-YFP fusion localizes to the PM in Arabidopsis leaves (FIG. 9G). […] Other proteins, possibly related to SWEET1, may be involved in sugar transport in roots.
As to B1, the “glucose efflux from cytosol into the ER” value is reported as “‘efflux’ glucose from the cytosol into the ER”.

Still in this assay, the particulars now being: cytosolic FRET glucose sensor.
“GLUE12: Arabidopsis GLUE/SWEET sugar transporter protein”: the “glucose accumulation in cytosol (negative FRET ratio change)” value is listed as “function as glucose transporters with different activities”.
In the case of B1, the “glucose accumulation in cytosol (negative FRET ratio change)” value is given as “function as glucose transporters with different activities”.
As to B2, the “glucose accumulation in cytosol (negative FRET ratio change)” value was “function as glucose transporters with different activities”.

Staying with this assay, now noted: cytosolic FRET glucose sensor, listed as SWEET8.
As to B1, the “glucose accumulation in cytosol (negative FRET ratio change)” value is on record as “also functions as a uniporter”.

Another assay concerns yeast strain YSL2-1. Description: Complementation growth assay of yeast strain YSL2-1/EBY4000 lacking all 18 hexose transporter genes. The settings on record: 2% fructose. The format is cell-based. As for the experimental part: Cells expressing yeast homolog, HXTS, or mammalian homolog, GLUT1, were used as controls. Os8N3 and RAG1AP1 were homologs from rice and mammalian. The yeast cells were grown in SD-Ura liquid medium with 2% maltose to early log phase and 5 m of serious dilutions were spotted on the media containing YPM or SD-URA containing 2% of maltose, fructose, or mannose. […]
Cells expressing yeast homolog, HXT5, or mammalian homolog, GLUT1, were used as controls. Os8N3 and RAG1AP1 were homologs from rice and mammalian. The yeast cells were grown in SD-Ura liquid medium with 2% maltose to early log phase and 5 m of serious dilutions were spotted on the media containing YPM or SD-URA containing 2% glucose.
Cells expressing yeast homolog, HXT5, or mammalian homolog, GLUT1, were used as controls. Os8N3 and RAG1AP1 were homologs from rice and mammalian. The yeast cells were grown in SD-Ura liquid medium with 2% maltose to early log phase and 5 m of serious dilutions were spotted on the media containing YPM or SD-URA containing various 2-Deoxy-glucose levels.
A modified version of the yeast strain EBY4000 (hxt1 through −17Δ::loxP gal2Δ::loxP stl1Δ::loxP agt1Δ::loxP ydl247wΔ::loxP yjr160cΔ::loxP) carrying a cytosolic invertase (YSL2-1) was transformed with SWEETs and HXTS and grown on SD (synthetic deficient) medium supplemented with 2% maltose and required auxotrophic markers. For complementation growth assays, cells were grown overnight in liquid minimum medium to OD600˜0.6 and then diluted to OD600˜0.2 using water. Serial dilutions (1×, 5×, 25×, and 125×) were plated on SD media containing either 2% maltose (as control) or 2% glucose and the relevant auxotrophic markers. Growth was documented by scanning (CanoScan, Canon) the plates after 2-5 days at 30° C.
Turning to B3, the complementation on fructose entry is on record as “transport fructose”.
Turning to B4, the complementation on fructose entry is “transport fructose”.

The assay is the same for the next values; noted with them: 2% glucose.
On to B5, for which the “complementation of yeast hexose transport mutant on glucose” value (“complementation … on glucose” below) was “transport glucose”.
Same read-out and setting: in the case of B1 it was “transport glucose”; in that of B3, “transport glucose”.
Regarding B4, the “complementation … on glucose” value is reported as “transport glucose”.

The assay is the same for the next values; noted with them: 2% glucose; listed as SWEET8/RPG1.
Consider B1, for which the “complementation … on glucose” value is “complements the yeast glucose transport mutant”.

The same assay, now with this note: 2% mannose.
As to B5, the complementation on mannose entry is on record as “transport mannose”.
In the case of B1, the complementation on mannose result is given as “transport mannose”.
As for B3, the complementation on mannose entry was “transport fructose and mannose”.
As for B4, the complementation on mannose result was “transport fructose and mannose”.

The same assay, now with this note: various 2-Deoxy-glucose levels.
As for B6, the “sensitivity to 2-deoxyglucose” value is “transport 2-deoxyglucose”.
For B5, the “sensitivity to 2-deoxyglucose” value is on record as “transport 2-deoxyglucose”.
Take B1: the “sensitivity to 2-deoxyglucose” value is given as “transport 2-deoxyglucose”.
Consider B7, for which the “sensitivity to 2-deoxyglucose” value was “transport 2-deoxyglucose”.
The same measure, in the same setting: under B8 stands “transport 2-deoxyglucose”.
Take B3: the “sensitivity to 2-deoxyglucose” value is reported as “transport 2-deoxyglucose”.
Regarding B4, the “sensitivity to 2-deoxyglucose” value is “transport 2-deoxyglucose”.
The same measure, in the same setting: in the case of B9 it was “transport 2-deoxyglucose”.
